Measured values from the supplement of paper PMC10567573.

B1: VAMP4 (parent)
chain: IMALVAAILLLVIIILIVMKYRT
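Further: lentivirally expressed fusions sorted by FACS into six bins by GFP to DsRed ratio, PSI derived from sequencing read proportions per bin multiplied by bin number.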

Variants of: B1
Experiment: protein stability index of a GFP-peptide fusion (GPS, HEK-293T) (PSI 1-6); higher = more stable
Details: c terminus: native
Variant IMALVAAILLLEIIILIVMKYRT [V12E] has a protein stability index of 1.6.
IMALVAAILLLPIIILIVMKYRT [V12P] gave a protein stability index of 2.62.
In the case of IMALVAAILLLGIIILIVMKYRT [V12G], the protein stability index is reported as 3.32.
With IMALVAAILLLMIIILIVMKYRT [V12M] the protein stability index was 3.03.
With IMALVAAILLLRIIILIVMKYRT [V12R] the protein stability index was 2.49.
Work on IMALVAAILLLQIIILIVMKYRT [V12Q] yielded a protein stability index of 2.54.
In the case of IMALVAAILLLDIIILIVMKYRT [V12D], the protein stability index is reported as 1.65.
IMALVAAILLLKIIILIVMKYRT [V12K] showed a protein stability index of 2.06.
IMALVAAILLLLIIILIVMKYRT [V12L] gave a protein stability index of 3.23.
Variant IMALVAAILLLNIIILIVMKYRT [V12N] has a protein stability index of 2.48.
Work on IMALVAAILLLHIIILIVMKYRT [V12H] yielded a protein stability index of 2.3.
IMALVAAILLLCIIILIVMKYRT [V12C] gave a protein stability index of 2.97.
IMALVAAILLLWIIILIVMKYRT [V12W] gave a protein stability index of 2.65.
In the case of IMALVAAILLLIIIILIVMKYRT [V12I], the protein stability index is reported as 3.64.
IMALVAAILLLAIIILIVMKYRT [V12A] gave a protein stability index of 3.62.
IMALVAAILLLFIIILIVMKYRT [V12F] showed a protein stability index of 3.47.
IMALVAAILLLSIIILIVMKYRT [V12S] showed a protein stability index of 3.17.
In the case of IMALVAAILLLYIIILIVMKYRT [V12Y], the protein stability index is reported as 2.47.
IMALVAAILLLTIIILIVMKYRT [V12T] showed a protein stability index of 3.16.
IMALVAAILLYVIIILIVMKYRT [L11Y] gave a protein stability index of 2.68.
In the case of IMALVAAILLEVIIILIVMKYRT [L11E], the protein stability index is reported as 2.27.
Work on IMALVAAILLFVIIILIVMKYRT [L11F] yielded a protein stability index of 3.58.
Work on IMALVAAILLRVIIILIVMKYRT [L11R] yielded a protein stability index of 2.98.
IMALVAAILLWVIIILIVMKYRT [L11W] gave a protein stability index of 2.84.
IMALVAAILLHVIIILIVMKYRT [L11H] gave a protein stability index of 2.71.
IMALVAAILLNVIIILIVMKYRT [L11N] gave a protein stability index of 2.25.
IMALVAAILLAVIIILIVMKYRT [L11A] gave a protein stability index of 3.51.
With IMALVAAILLIVIIILIVMKYRT [L11I] the protein stability index was 3.33.
Variant IMALVAAILLTVIIILIVMKYRT [L11T] has a protein stability index of 3.56.
For IMALVAAILLKVIIILIVMKYRT [L11K], the protein stability index was 2.61.
Work on IMALVAAILLGVIIILIVMKYRT [L11G] yielded a protein stability index of 3.71.
IMALVAAILLCVIIILIVMKYRT [L11C] showed a protein stability index of 3.27.
In the case of IMALVAAILLMVIIILIVMKYRT [L11M], the protein stability index is reported as 3.33.
In the case of IMALVAAILLQVIIILIVMKYRT [L11Q], the protein stability index is reported as 2.6.
In the case of IMALVAAILLSVIIILIVMKYRT [L11S], the protein stability index is reported as 3.39.
Work on IMALVAAILLDVIIILIVMKYRT [L11D] yielded a protein stability index of 2.28.
IMALVAAILLVVIIILIVMKYRT [L11V] gave a protein stability index of 3.46.
With IMALVAAILLPVIIILIVMKYRT [L11P] the protein stability index was 3.43.
In the case of IMALVAAILLLVIIVLIVMKYRT [I15V], the protein stability index is reported as 3.25.
IMALVAAILLLVIILLIVMKYRT [I15L] gave a protein stability index of 3.26.
In the case of IMALVAAILLLVIIMLIVMKYRT [I15M], the protein stability index is reported as 2.88.
For IMALVAAILLLVIIELIVMKYRT [I15E], the protein stability index was 2.43.
With IMALVAAILLLVIIHLIVMKYRT [I15H] the protein stability index was 1.69.
With IMALVAAILLLVIIDLIVMKYRT [I15D] the protein stability index was 2.
Variant IMALVAAILLLVIIRLIVMKYRT [I15R] has a protein stability index of 1.9.
For IMALVAAILLLVIIGLIVMKYRT [I15G], the protein stability index was 2.98.
For IMALVAAILLLVIIFLIVMKYRT [I15F], the protein stability index was 2.79.
For IMALVAAILLLVIIKLIVMKYRT [I15K], the protein stability index was 2.04.
IMALVAAILLLVIIWLIVMKYRT [I15W] showed a protein stability index of 1.84.
With IMALVAAILLLVIIQLIVMKYRT [I15Q] the protein stability index was 1.89.
IMALVAAILLLVIIALIVMKYRT [I15A] showed a protein stability index of 3.05.
For IMALVAAILLLVIIYLIVMKYRT [I15Y], the protein stability index was 2.26.
IMALVAAILLLVIICLIVMKYRT [I15C] gave a protein stability index of 3.51.
IMALVAAILLLVIIPLIVMKYRT [I15P] showed a protein stability index of 3.92.
Work on IMALVAAILLLVIINLIVMKYRT [I15N] yielded a protein stability index of 1.95.
Work on IMALVAAILLLVIITLIVMKYRT [I15T] yielded a protein stability index of 3.08.
Variant IMALVAAILLLVIISLIVMKYRT [I15S] has a protein stability index of 2.65.
In the case of IMALVAWILLLVIIILIVMKYRT [A7W], the protein stability index is reported as 3.03.
Work on IMALVARILLLVIIILIVMKYRT [A7R] yielded a protein stability index of 3.36.
IMALVAYILLLVIIILIVMKYRT [A7Y] showed a protein stability index of 2.94.
Variant IMALVASILLLVIIILIVMKYRT [A7S] has a protein stability index of 3.81.
IMALVATILLLVIIILIVMKYRT [A7T] gave a protein stability index of 3.4.
IMALVAVILLLVIIILIVMKYRT [A7V] gave a protein stability index of 3.45.
IMALVAAILMLVIIILIVMKYRT [L10M] showed a protein stability index of 3.35.
Work on IMALVAAILSLVIIILIVMKYRT [L10S] yielded a protein stability index of 2.86.
Work on IMALVAAILILVIIILIVMKYRT [L10I] yielded a protein stability index of 3.35.
Work on IMALVAAILGLVIIILIVMKYRT [L10G] yielded a protein stability index of 2.73.
For IMALVAAILRLVIIILIVMKYRT [L10R], the protein stability index was 3.16.
With IMALVAAILDLVIIILIVMKYRT [L10D] the protein stability index was 3.06.
In the case of IMALVAAILALVIIILIVMKYRT [L10A], the protein stability index is reported as 2.87.
IMALVAAILFLVIIILIVMKYRT [L10F] gave a protein stability index of 3.43.
Work on IMALVAAILWLVIIILIVMKYRT [L10W] yielded a protein stability index of 2.78.
In the case of IMALVAAILQLVIIILIVMKYRT [L10Q], the protein stability index is reported as 2.67.
In the case of IMALVAAILTLVIIILIVMKYRT [L10T], the protein stability index is reported as 2.87.
IMALVAAILNLVIIILIVMKYRT [L10N] gave a protein stability index of 2.48.
Variant IMALVAAILELVIIILIVMKYRT [L10E] has a protein stability index of 1.79.
For IMALVAAILPLVIIILIVMKYRT [L10P], the protein stability index was 1.95.
Variant IMALVAAILVLVIIILIVMKYRT [L10V] has a protein stability index of 3.53.
Variant IMALVAAILKLVIIILIVMKYRT [L10K] has a protein stability index of 1.97.
For IMALVAAILHLVIIILIVMKYRT [L10H], the protein stability index was 2.46.
IMALVAAILCLVIIILIVMKYRT [L10C] showed a protein stability index of 2.84.
For IMALVAAILYLVIIILIVMKYRT [L10Y], the protein stability index was 2.03.
Work on IMALVAAISLLVIIILIVMKYRT [L9S] yielded a protein stability index of 3.05.
Variant IMALVAAIDLLVIIILIVMKYRT [L9D] has a protein stability index of 2.68.
With IMALVAAIQLLVIIILIVMKYRT [L9Q] the protein stability index was 2.29.
In the case of IMALVAAIRLLVIIILIVMKYRT [L9R], the protein stability index is reported as 1.95.
Variant IMALVAAIPLLVIIILIVMKYRT [L9P] has a protein stability index of 2.43.
Variant IMALVAAIMLLVIIILIVMKYRT [L9M] has a protein stability index of 3.74.
With IMALVAAIGLLVIIILIVMKYRT [L9G] the protein stability index was 3.48.
Work on IMALVAAIVLLVIIILIVMKYRT [L9V] yielded a protein stability index of 3.3.
With IMALVAAIFLLVIIILIVMKYRT [L9F] the protein stability index was 3.56.
With IMALVAAIWLLVIIILIVMKYRT [L9W] the protein stability index was 2.76.
IMALVAAIILLVIIILIVMKYRT [L9I] showed a protein stability index of 3.36.
With IMALVAAIELLVIIILIVMKYRT [L9E] the protein stability index was 1.96.
Work on IMALVAAIKLLVIIILIVMKYRT [L9K] yielded a protein stability index of 2.5.
IMALVAAICLLVIIILIVMKYRT [L9C] showed a protein stability index of 3.33.
For IMALVAAIALLVIIILIVMKYRT [L9A], the protein stability index was 2.92.
